This note sets out measurements from publication PMC7124252.

Series [1] addresses T1, CTCF (human) (UniProt P49711).
T1 sequence: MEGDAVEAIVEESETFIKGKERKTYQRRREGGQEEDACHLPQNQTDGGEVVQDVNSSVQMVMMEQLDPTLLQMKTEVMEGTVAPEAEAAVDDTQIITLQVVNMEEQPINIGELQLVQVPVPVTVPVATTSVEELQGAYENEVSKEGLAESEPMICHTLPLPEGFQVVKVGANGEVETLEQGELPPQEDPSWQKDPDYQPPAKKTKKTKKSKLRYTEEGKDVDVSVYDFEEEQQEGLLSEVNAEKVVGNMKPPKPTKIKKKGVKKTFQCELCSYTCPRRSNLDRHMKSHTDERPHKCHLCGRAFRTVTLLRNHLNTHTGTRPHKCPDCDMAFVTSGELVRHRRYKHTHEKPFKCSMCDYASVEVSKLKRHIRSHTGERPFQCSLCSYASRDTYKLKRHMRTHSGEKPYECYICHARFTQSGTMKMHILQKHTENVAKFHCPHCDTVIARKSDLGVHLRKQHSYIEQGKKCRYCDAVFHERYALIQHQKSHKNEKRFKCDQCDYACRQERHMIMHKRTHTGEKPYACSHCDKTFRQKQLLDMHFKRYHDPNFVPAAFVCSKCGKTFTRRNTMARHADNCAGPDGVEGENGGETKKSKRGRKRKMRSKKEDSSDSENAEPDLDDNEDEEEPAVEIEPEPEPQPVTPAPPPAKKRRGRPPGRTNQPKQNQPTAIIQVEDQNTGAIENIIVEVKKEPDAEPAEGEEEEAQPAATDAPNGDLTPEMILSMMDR
The series is described as follows: EMSA. To be noted: 10 mM Tris (pH not stated), 50 mM KCl, 5 mM MgCl2, 0.1 mM ZnSO4, 1 mM DTT, 0.1% NP-40, 50 ng/µl poly(dI-dC), 2.5% glycerol, 20 fmol probe, 30 min at 25 C. Background: Mobility shift assays separate free from complexed probe on a gel.

In series [2] the test system is CTCF (human). The series is described as follows: EMSA. The conditions noted are these: 10 mM Tris (pH not stated), 50 mM KCl, 5 mM MgCl2, 0.1 mM ZnSO4, 1 mM DTT, 0.1% NP-40, 50 ng/µl poly(dI-dC), 2.5% glycerol, 20 fmol probe, 30 min at 25 C. More on the design: unit not given here.

For the substance “ACCTGTAACATTTCCTTTCCAGTTGCCGGATTCATTATAAGGATATGTACAGTTTGTTGCGTTGTATTGCGCCACCCGTTGGCTTAGGAAAGAACTGCCCTCGTAGGTTGGCCTACAAGGTTTGCAACTTCAGAGCCTC (double strand) [Cacna1b e37a DNA probe (139 bp)]”, the binding signal result in series [1] was “binds”. The substance Cacna1b e37a DNA probe (139 bp) had a Kd in series [2] of 0.0461. With “TCAGTGCAGGGTCAAGGTCTACCTTGTATGCAACTCGAGCCGGGCATTTCTTCCCCAACCCCAGAGGTGGGGACATGTGTTTCAGCATCTCAAACATGTCATTGTAACTGATGCGCCCACTGGAAACCCGTTCCAGAGG (double strand) [Cacna1b e37b DNA probe (139 bp)]”, the binding result in series [1] is “no binding”.
